Measurements reported in patent publication EP4569003A2 (dated 2026).
Each block holds one binder with its values, some of them ahead of it.

What was measured:
[1] = target: T1, CLDN9-GFP, expressed in HEK293 T cells (UniProt O95484 1-217); experiment: immunohistochemistry on FFPE engineered HEK293 cells
T1 construct: whole, on cells; also called Claudin9; HEK293 9; not shown: GFP fused to CLDN9
T1 sequence (looked up): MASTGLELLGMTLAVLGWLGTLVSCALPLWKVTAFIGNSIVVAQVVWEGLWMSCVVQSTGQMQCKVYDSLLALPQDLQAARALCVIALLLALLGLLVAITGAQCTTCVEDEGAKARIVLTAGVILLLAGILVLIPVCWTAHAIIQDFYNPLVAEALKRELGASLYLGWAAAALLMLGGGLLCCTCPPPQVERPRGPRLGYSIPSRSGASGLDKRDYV

[2] = target: T2, CLDN4-GFP, expressed in HEK293 T cells (UniProt O14493 1-209); experiment: as above
T2 construct: whole, on cells; also called Claudin4; HEK293 4; not shown: GFP fused to CLDN4
T2 sequence (looked up): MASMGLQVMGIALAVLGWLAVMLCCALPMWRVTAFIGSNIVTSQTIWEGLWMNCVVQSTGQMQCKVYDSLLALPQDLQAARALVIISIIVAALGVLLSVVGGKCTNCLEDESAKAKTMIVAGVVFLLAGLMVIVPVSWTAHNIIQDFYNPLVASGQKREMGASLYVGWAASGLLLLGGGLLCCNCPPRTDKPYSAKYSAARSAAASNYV

[3] = target: T3, CLDN3-GFP, expressed in HEK293 T cells (UniProt O15551 1-220); experiment: as above
T3 construct: whole, on cells; also called Claudin3; HEK293 CLDN3; not shown: GFP fused to CLDN3
T3 sequence (looked up): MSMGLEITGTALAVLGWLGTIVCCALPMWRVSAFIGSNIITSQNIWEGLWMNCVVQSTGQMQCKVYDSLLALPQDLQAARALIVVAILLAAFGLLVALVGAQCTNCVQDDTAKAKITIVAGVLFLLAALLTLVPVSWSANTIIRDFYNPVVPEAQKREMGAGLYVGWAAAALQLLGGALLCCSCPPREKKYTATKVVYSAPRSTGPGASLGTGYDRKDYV

[4] = target: T4, CLDN6 cytoplasmic domain peptide SHYMARYSTSAPAIS (SEQ ID NO: 99) (human); experiment: peptide epitope mapping (FIG 2)
T4 peptide: SHYMARYSTSAPAIS

binding result [1]: no binding
binding result [2]: no binding
binding result [3]: no binding
binding result [4]: binds
B1: Claudin-6 (CLDN6) antibody 3D07 (antibody, V domains shown)
VH: EVQLQQFGAELVKPGASVKISCRTSGYTFTDYNIDWVRQSHGKSLEWIGDINPNSENTDYNQKFKGKATLTVDKSSSTAYLELRSLTSEDTAVYYCARSPYGNYVGYLMDYWGQGTSVTVSS
VL: DVVLTQTPLSLPVNIGDQASISCRSTKSLLNSDGFTYLDWYLQKPGQSPQVLIYLISNRFSGVPDRFSGNGSGTDFTLKISRVEAEDLGVYYCFQSNYIPLTFGAGTKLELK
notes: Mouse hybridoma clone; Detection was with goat anti-mouse IgG; also called clone 3D07

binding result [1]: no binding
binding result [2]: no binding
binding result [3]: no binding
B2: Claudin-6 (CLDN6) antibody 3H11 (antibody, V domains shown)
VH: EIQLQQSGAELVRPGALVRLSCKPSGFNIKDYYIHWVKERPEQGLEWIGWIDPDNGDTLYDSKFQGKASLTADTSSNTAYLQLTSLTSEDTAVYYCATYRYSFAYWGQGTLVTVSA
VL: DIQMNQSPSSLSASLGDTITITCHASQNINVWLNWYQQKPGNIPKLLIFKASNLYTGVPSRFSGGGSGTGFTLTISSLQPEDIATYYCQQGQTYPLTFGGGTKLEIK
notes: Mouse hybridoma clone; Detection was with goat anti-mouse IgG; also called clone 3H11
